According to patent US20140248291A1, “Modulation of Cellular Migration” (THE UAB RESEARCH FOUNDATION, priority 2011, published 2014):
Each block holds one molecule with its values, some of them ahead of it.

Experiments:
[1] = tested on: D54-MG cells; test: calcium imaging (Fura-2) of D54-MG cells after neuroligands; format: cell-based, human
Method: D54-MG cells were plated on 35-mm glass bottom dishes (MatTek, Corp., Ashland, Mass.) at ˜100×10^3 per dish and cultured for 2 days. pTRIPZ transfected cells, after stable selection, were plated at a density of ˜20×10^3 per dish and treated with […] doxycycline for 4 to 5 days to allow for sufficient protein knockdown. All cells were loaded in serum-free culture medium for 45 min with the ratiometric Ca^2+ dye Fura-2-acetoxymethylester (5 μmol/L; TEFLABS, Austin, Tex.) reconstituted in 20% wiv pluronic acid in DMSO (Invitrogen, Carlsbad, Calif.). Cells were rinsed with serum-free medium and allowed to rest in 7% serum-containing medium for 45 min at 37° C. The glass-bottom dishes were placed in an environmental chamber mounted on an inverted microscope. Cells were allowed to equilibrate in the chamber for 15 min before calcium images were collected. Following equilibration, recordings were obtained with an Olympus Disk Spinning Unit (DSU) fluorescent imaging microscope where cells were alternately excited at 340 and 380 nm using an x-cite illumination light source. Emitted light was collected at >520 nm. Images were digitized online using Slidebook 4.2 software (Intelligent Imaging Innovations, Denver, Colo.), and 340:380 nm ratios were obtained every 15 seconds. Following a 5 minute baseline recording every 15 seconds, BK was applied to the cells and imaging continued every 15 seconds for 30 or 60 minutes. In a subset of experiments, BK antagonists, HOE-140 and Bradyzide were applied to the cells. These experiments were repeated at least three times and data were pooled for statistical analysis.
Glioma cells respond to environmental clues as they invade the brain. It has been previously shown that the exposure of glioma cells to certain neuroligands induces increase in intracellular calcium concentrations. In this series of experiments, we investigated Ca^2+-responses in cultured D54-MG glioma cells, after addition of acetylcholine (ACh), ATP or BK. Glioma cells were loaded with the ratiometric Ca^2+-dye FURA2-AM, and imaged over 30 min.

[2] = tested on: D54-MG-GFP glioma cells; test: Transwell migration assay; format: cell-based, human; settings: 5 h, neuroligand at bottom of filter
Method: The day before the experiment was performed, ˜70% confluent dishes of cells were prepared. Transwell migration Fluoroblock cell culture inserts (BD Biosciences, San Jose, Calif.) with 8 μm pores were coated overnight with Vitronectin (BD Biosciences, San Jose, Calif.) at a concentration of 5 μg/ml in PBS. The following day, inserts were blocked with 1% fatty acid-free bovine serum albumin for 1 h. Inserts were then washed two times in PBS, and 400 μl of Migration Assay Buffer (MAB, 0.1% fatty acid-free bovine serum albumin in serum-free media) was added to the bottom of each well. Cells were rinsed once in PBS and were lifted off the dish by the addition of 0.5 mm EGTA. Cells were rinsed twice by centrifugation and resuspended in MAB and counted. Forty thousand cells were plated on the top of each filter and allowed to adhere for 30 min before drug was added. When BK+/−antagonists was added to the filters, it was added only to the bottom of the filter for chemotaxis. For migration assay, D54-EGFP MG cells were allowed to migrate for 5 hours, washed with PBS, fixed with 4% paraformaldehyde 15 minutes at room temperature, washed thrice and counterstained with DAPI for 5 minutes at room temperature. Invasion assay was performed similarly. Matrigel cell cultured inserts (BD Biosciences, San Jose, Calif.) with 8 μm pores were pretreated Vitronectin and blocked as described above. […] The number of nuclei that migrated through pores was counted. All counts per treatment were averaged and SE values were calculated. […]
To investigate the hypothesis that BK promotes glioma migration in vitro, we used Transwell migration assay which conveniently permit examination of cell migration across a membrane barrier with 8 μm pores towards vitronectin, a chemo-attractant extracellular matrix protein. This frequently used assay allows a quantitative study of drug effects with regards to drugs acting as motogens or as chemo-attractants. […]

[3] = target: B2R (Homo sapiens, UniProt P30411); settings: cited from earlier work
Chain of B2R (P30411 whole entry, species assumed): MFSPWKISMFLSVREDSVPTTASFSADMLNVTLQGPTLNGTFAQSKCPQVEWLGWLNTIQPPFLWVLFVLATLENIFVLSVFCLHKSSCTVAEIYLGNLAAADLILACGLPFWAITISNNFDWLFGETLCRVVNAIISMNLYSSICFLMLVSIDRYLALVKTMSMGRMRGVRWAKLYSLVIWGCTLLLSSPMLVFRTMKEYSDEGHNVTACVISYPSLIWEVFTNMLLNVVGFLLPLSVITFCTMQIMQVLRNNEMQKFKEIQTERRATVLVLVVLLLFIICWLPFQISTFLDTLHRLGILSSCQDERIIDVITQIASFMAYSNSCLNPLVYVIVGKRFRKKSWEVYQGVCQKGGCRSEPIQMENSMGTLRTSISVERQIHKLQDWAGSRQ

[4] = target: bradykinin-2-receptor (B2R), human, as expressed on glioma cells (D54-MG, D54-MG-GFP, U251-MG) (human) (UniProt P30411); test: cell-based or functional assay
Chain of bradykinin-2-receptor (B2R), human, as expressed on glioma cells (D54-MG, D54-MG-GFP, U251-MG) (human) (P30411 whole entry): as the sequence (P30411 whole entry, species assumed) above

Molecule: Nc1ncnc2c1ncn2[C@@H]1O[C@H](COP(=O)(O)OP(=O)(O)OP(=O)(O)O)[C@@H](O)[C@H]1O [ATP]
average peak of Ca2+ response ([1]; 100 μM ATP): 0.45±0.05
cells responded / cells imaged ([1]; 100 μM ATP): 87/146
effect on D54-MG cell migration [2]: failed to alter glioma migration

Molecule: N=C(N)NCCC[C@@H](N)C(=O)N[C@@H](CCCNC(=N)N)C(=O)N1CCC[C@H]1C(=O)N1C[C@H](O)C[C@H]1C(=O)NCC(=O)N[C@@H](Cc1cccs1)C(=O)N[C@@H](CO)C(=O)N1Cc2ccccc2C[C@@H]1C(=O)N1[C@H](C(=O)N[C@@H](CCCNC(=N)N)C(=O)O)C[C@@H]2CCCC[C@@H]21 [Icatibant]
B2R antagonism [3]: potent antagonist

Ca2+-response of D54-MG cells to BK in the presence of HOE-140: average peak [4]: 0.15
Ca2+-response of D54-MG cells to BK in the presence of HOE-140: cells responded [4]: 22 of 162 cells
directionality of D54-MG cells in a BK concentration gradient in the presence of HOE-140 [4]: 8 of 15 cells
rat brain slice invasion with BK and HOE-140: cells migrated up to 15 µm [4]: 25.7%
rat brain slice invasion with BK and HOE-140: cells migrated up to 20 µm [4]: 15.4%
rat brain slice invasion with BK and HOE-140: cells migrated up to 25 µm [4]: 6.4%
rat brain slice invasion with BK and HOE-140: cells remaining on the top of the slice [4]: 47.5%
rat brain slice invasion with HOE-140 alone: cells migrated up to 15 µm [4]: 29.8%
rat brain slice invasion with HOE-140 alone: cells migrated up to 20 µm [4]: 14.4%
rat brain slice invasion with HOE-140 alone: cells migrated up to 25 µm [4]: 3.5%
rat brain slice invasion with HOE-140 alone: cells on top of the slice [4]: 51.9%
Molecule: HOE-140 (D-Arg-[Hyp3, Thi5, D-Tic7, Oic8]bradykinin) (peptide)

Molecule: CC(=O)OCC[N+](C)(C)C [ACh, acetylcholine]
average peak of Ca2+ response ([1]; 50 μM ACh): 0.23±0.04
cells responded (sustained rise in intracellular calcium) ([1]; 50 μM ACh, of 128 cells imaged): 116
